Data reported in paper PMC12549891.

Target: human olfactory CNGA2/A4/B1b heterotetrameric channel (human) (UniProt Q16280)
Sequence (Q16280 whole entry, chain 1 of 3): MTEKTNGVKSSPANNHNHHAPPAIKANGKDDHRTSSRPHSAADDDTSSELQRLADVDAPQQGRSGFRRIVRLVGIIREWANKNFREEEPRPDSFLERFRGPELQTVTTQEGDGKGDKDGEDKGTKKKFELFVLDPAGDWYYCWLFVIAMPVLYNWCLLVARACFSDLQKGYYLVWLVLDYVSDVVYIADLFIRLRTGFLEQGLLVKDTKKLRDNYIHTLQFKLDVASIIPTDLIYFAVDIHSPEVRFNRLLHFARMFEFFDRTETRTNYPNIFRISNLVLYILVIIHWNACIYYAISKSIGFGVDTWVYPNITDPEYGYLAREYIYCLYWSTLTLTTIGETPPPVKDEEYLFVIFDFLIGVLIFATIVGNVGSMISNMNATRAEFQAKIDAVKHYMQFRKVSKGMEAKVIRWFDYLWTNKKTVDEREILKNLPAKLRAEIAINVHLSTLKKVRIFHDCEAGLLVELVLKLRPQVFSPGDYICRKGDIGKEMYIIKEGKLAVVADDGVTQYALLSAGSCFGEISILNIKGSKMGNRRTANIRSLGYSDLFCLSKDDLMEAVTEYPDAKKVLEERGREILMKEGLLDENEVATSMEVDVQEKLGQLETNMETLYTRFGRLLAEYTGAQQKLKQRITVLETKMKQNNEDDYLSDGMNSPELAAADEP
Sequence (Q8IV77 whole entry, chain 2 of 3, further chain): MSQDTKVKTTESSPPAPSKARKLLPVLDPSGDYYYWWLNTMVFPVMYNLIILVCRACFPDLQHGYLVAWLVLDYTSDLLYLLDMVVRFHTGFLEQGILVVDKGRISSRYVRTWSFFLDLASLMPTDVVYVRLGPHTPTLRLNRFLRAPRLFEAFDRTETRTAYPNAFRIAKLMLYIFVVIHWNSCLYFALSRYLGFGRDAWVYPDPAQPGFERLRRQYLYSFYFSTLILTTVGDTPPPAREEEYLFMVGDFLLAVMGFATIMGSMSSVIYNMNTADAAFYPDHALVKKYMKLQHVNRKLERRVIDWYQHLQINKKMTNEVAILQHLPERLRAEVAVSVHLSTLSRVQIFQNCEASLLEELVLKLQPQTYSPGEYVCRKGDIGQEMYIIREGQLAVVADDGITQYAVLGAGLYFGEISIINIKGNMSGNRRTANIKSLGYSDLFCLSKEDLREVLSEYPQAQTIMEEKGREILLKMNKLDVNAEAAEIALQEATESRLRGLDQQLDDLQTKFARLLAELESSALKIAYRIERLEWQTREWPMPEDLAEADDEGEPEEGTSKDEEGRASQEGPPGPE
Sequence (Q14028 456-1251, chain 3 of 3, further chain): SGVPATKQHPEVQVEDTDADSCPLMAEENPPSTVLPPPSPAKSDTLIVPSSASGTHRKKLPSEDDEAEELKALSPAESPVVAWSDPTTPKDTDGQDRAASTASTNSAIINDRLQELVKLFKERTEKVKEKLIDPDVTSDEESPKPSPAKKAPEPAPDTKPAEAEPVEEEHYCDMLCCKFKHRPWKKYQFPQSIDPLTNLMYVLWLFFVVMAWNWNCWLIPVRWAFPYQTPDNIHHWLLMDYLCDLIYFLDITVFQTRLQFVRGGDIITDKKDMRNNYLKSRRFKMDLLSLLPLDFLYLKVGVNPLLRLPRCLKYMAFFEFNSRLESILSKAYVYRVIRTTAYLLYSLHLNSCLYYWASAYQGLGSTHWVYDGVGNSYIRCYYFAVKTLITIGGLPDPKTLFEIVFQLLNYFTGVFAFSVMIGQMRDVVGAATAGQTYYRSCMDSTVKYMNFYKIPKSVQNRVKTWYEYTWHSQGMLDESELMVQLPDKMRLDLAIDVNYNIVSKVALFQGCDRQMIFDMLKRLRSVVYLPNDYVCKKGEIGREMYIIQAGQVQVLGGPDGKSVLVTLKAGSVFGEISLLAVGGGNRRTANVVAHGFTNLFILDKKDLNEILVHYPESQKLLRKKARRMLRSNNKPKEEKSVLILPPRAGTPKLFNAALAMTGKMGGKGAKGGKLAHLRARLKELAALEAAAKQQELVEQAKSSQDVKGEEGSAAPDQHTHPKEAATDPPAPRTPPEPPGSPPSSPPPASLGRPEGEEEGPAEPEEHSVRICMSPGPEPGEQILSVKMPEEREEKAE

With “human calmodulin (from UniProt P0DP23 1-149) (natural protein)” the time of washout with EGTA-containing bath solution needed to remove the bound (endogenous) CaM from the channel in excised patches was 10 min.
